Test results: paper PMC5800781 (Nature, 2017)

B1: RAD51 (natural protein, human, UniProt Q06609 1-339, looked up)
chain: MAMQMQLEANADTSVEEESFGPQPISRLEQCGINANDVKKLEEAGFHTVEAVAYAPKKELINIKGISEAKADKILAEAAKLVPMGFTTATEFHQRRSEIIQITTGSKELDKLLQGGIETGSITEMFGEFRTGKTQICHTLAVTCQLPIDRGGGEGKAMYIDTEGTFRPERLLAVAERYGLSGSDVLDNVAYARAFNTDHQTQLLYQASAMMVESRYALLIVDSATALYRTDYSGRGELSARQMHLARFLRMLLRLADEFGVAVVITNQVVAQVDGAAMFAADPKKPIGGNIIAHASTTRLYLRKGRGETRICKIYDSPCLPEAEAMFAINADGVGDAKD

Experiments:
[1] = target: BRCA1 (UniProt P38398 1-1863); experiment: far-Western, overlay or dot blot
[2] = target: T1, BARD1 (human, UniProt Q99728 1-777); experiment: far-Western, overlay or dot blot
T1 sequence (looked up): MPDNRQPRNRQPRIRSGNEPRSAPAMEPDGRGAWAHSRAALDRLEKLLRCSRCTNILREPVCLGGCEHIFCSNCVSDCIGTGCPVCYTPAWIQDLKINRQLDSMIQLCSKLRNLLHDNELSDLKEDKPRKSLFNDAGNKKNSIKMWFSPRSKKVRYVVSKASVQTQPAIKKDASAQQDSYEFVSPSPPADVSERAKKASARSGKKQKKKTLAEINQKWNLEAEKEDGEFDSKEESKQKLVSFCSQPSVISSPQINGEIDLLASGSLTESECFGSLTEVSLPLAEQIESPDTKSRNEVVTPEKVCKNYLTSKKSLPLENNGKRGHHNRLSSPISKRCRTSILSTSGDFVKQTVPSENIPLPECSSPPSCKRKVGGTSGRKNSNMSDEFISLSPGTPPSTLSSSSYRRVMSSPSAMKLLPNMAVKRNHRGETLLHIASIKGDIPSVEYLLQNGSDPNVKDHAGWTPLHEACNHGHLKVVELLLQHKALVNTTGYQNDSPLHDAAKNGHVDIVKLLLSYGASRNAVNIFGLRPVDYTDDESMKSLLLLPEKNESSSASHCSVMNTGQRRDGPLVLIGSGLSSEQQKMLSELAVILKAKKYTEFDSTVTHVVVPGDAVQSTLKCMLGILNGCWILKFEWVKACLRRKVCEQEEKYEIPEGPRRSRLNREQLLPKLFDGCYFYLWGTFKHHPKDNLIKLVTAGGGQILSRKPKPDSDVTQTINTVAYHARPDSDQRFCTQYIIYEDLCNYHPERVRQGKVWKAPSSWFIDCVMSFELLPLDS

[3] = target: BRCA1^Δ758-1064-BARD1 complex ( | human, UniProt P38398 1-1863; Q99728 1-777, Δ758-1064); experiment: pull-down
[4] = target: BRCA1^1-500-BARD1 complex ( | human, UniProt P38398 1-500; Q99728 1-777); experiment: pull-down
[5] = target: BRCA1-BARD1 complex ( | human, UniProt P38398 1-1863; Q99728 1-777); experiment: pull-down
[6] = target: B1; experiment: pull-down

Measured: binding result

B1
not listed: [6]
binds: all other assays above

LKEDKPRKSLFNDAGNKKNSIKMWFSPRSKKVRYVVSKAS (domain or fragment, human, UniProt Q99728 123-162, looked up) [GST-BARD1^123-162]
binds: [6]
